Key:
[1] = biological target: 26S proteasome reconstituted with Cy3-labeled base (Rpt1-I191AzF-Cy3) (S. cerevisiae) (UniProt P33299); assay: FRET or BRET
[2] = biological target: reconstituted 26S proteasome (wild-type base, lid, Rpn10 and 20S core) (S. cerevisiae) (UniProt P33299)

| kapp (1/τapp) of tail insertion, fast phase [1] | τapp of tail insertion, fast phase [1] | KM of multiple-turnover processing (Michaelis-Menten, anisotropy) [2] | Substance |
| --- | --- | --- | --- |
| 1.4 s⁻¹ | – | – | ubiquitinated titin-I27^V15P-23-K-11, Cy5-labeled (from UniProt P0CG63 1-76) |
| – | 7.15 s | – | ubiquitinated titin-I27^V15P-23-K-25 (serine rich), Cy5-labeled (from UniProt P0CG63 1-76) |
| – | 1.73 s | – | ubiquitinated titin-I27^V15P-23-K-25, Cy5-labeled (from UniProt P0CG63 1-76) |
| 0.62 s⁻¹ | 1.61 s | – | ubiquitinated titin-I27^V15P-23-K-35 modified with Cy5 on its unstructured tail (from UniProt P0CG63 1-76) |
| – | – | 2 µM | ubiquitinated titin-I27^V15P-43-K-11 (from UniProt P0CG63 1-76) |

— PMC6519451
